In experiment [1] the target is T1, rHuman IGF-1 sR, (IGF-1 sR), CF (R&D Systems Cat#391-GR) (human, UniProt P08069 31-932).
T1 construct: Bought from R&D Systems and called a soluble receptor; also called insulin-like growth factor-1 soluble receptor
Briefly: MSD multispot ECL, antigen spotted on plate, Fab 44.1 nM; blank spot 200.

In experiment [2] the target is T2, rHuman CD44/Fc Chimera, CF (R&D Systems Cat#3660-CD) (human, UniProt P16070 21-220).
T2 construct: Bought from R&D Systems; not shown: Fc of the bought chimera
The experiment is described as above.

Experiment [3] deals with T3, rHuman ErbB2/Fc Chimera, CF (R&D Systems Cat#1129-ER) (human, UniProt P04626 23-652).
T3 construct: Bought from R&D Systems; also called human epidermal growth factor 2 receptor (ErbB2); not shown: Fc of the bought chimera
The experiment is described as above.

The target of experiment [4] is T4, rHuman EGF R/Fc Chimera, CF (R&D Systems Cat#344-ER) (human, UniProt P00533 25-645).
T4 construct: Bought from R&D Systems; also called epidermal growth factor receptor (EGF R); not shown: Fc of the bought chimera
The description is as above.

Experiment [5] addresses T5, rHuman Notch-1/Fc Chimera, CF (R&D Systems Cat#3647-TK) (human, UniProt P46531 19-526).
T5 construct: Bought from R&D Systems; not shown: Fc of the bought chimera
The description is as above.

The target in experiment [6] is T6, Recombinant Human DLL4 (R&D Systems Cat#1506-D4/CF) (human, UniProt Q9NR61 27-524).
T6 construct: Bought from R&D Systems; also called rHuman DLL4; delta-like protein 4
Described as above.

In experiment [7] the target is T7, rHuman Erythropoietin R/Fc Chimera, CF (R&D Systems Cat#963-ER) (human, UniProt P19235 25-250).
T7 construct: Bought from R&D Systems; also called EPO R/Fc; Epo R/Fc chimera; not shown: Fc of the bought chimera
T7 sequence (looked up): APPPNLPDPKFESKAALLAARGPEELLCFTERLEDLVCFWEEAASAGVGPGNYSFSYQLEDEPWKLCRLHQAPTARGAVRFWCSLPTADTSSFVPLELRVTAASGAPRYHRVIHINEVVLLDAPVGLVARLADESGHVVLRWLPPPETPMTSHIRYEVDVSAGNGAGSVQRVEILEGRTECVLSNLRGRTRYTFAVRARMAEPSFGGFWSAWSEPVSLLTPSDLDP
The description is as above.

The target of experiment [8] is T8, rHuman P-Cadherin/Fc Chimera, CF (R&D Systems Cat#861-PC) (human, UniProt P22223 108-654).
T8 construct: Bought from R&D Systems; not shown: Fc of the bought chimera
Described as above.

Experiment [9] concerns the target T9, rHuman HGF R/c-MET/Fc Chimera, CF (R&D Systems Cat#358-MT/CF) (human, UniProt P08581 25-932).
T9 construct: Bought from R&D Systems; also called HGF R/Fc; hepatocyte growth factor receptor (HGF R/c-Met); not shown: Fc of the bought chimera
The experiment is described as above.

The target in experiment [10] is T10, rHuman Erythropoietin R/Fc Chimera, CF (R&D Systems Cat#963-ER) (human, UniProt P19235 25-250).
T10 construct: Bought reagent; also called EPO R/Fc; Epo R
T10 sequence (looked up): T7 sequence (looked up)
The experiment in a line: MSD multispot ECL, antigen spotted, Fab 0.1 nM; blank spot 201.

Experiment [11] concerns the target T11, rHuman HGF R/c-MET/Fc Chimera, CF (R&D Systems Cat#358-MT/CF) (human, UniProt P08581 25-932).
T11 construct: Bought reagent; also called HGF R/Fc; hepatocyte growth factor receptor
The experiment is described as above.

Experiment [12] concerns the target T12, rHuman IGF-1 sR, CF (R&D Systems Cat#391-GR) (human, UniProt P08069 31-932).
T12 construct: Bought recombinant soluble receptor; also called insulin-like growth factor-1 soluble receptor
Briefly: Multispot ECL (MSD), antigen spotted on plate, Fab 62.5 nM; blank spot 268.

In experiment [13] the target is T13, rHuman Notch-1/Fc Chimera, CF (R&D Systems Cat#3647-TK) (human, UniProt P46531 19-526).
T13 construct: Bought recombinant protein; Fc part of the bought chimera not given
Described as above.

Experiment [14] addresses T14, rHuman Erythropoietin R/Fc Chimera, CF (R&D Systems Cat#963-ER) (human, UniProt P19235 25-250).
T14 construct: Bought recombinant protein; also called EPO R/Fc; Epo R; Fc part of the bought chimera not given
T14 sequence (looked up): T7 sequence (looked up)
The description is as above.

For experiment [15], the target named is T15, Recombinant Human DLL4 (R&D Systems Cat#1506-D4/CF) (human, UniProt Q9NR61 27-524).
T15 construct: Bought recombinant protein; also called rHuman DLL4; delta-like protein 4
The description is as above.

For experiment [16], the target named is T16, rHuman CD44/Fc Chimera, CF (R&D Systems Cat#3660-CD) (human, UniProt P16070 21-220).
T16 construct: Bought reagent; Fc part of the bought chimera not given
The experiment in a line: MSD Multispot ECL, antigen spotted on plate, Fab 32.5 nM; blank spot 473.

Experiment [17] has as its target T17, rHuman IGF-1 sR, (IGF-1 sR), CF (R&D Systems Cat#391-GR) (human, UniProt P08069 31-932).
T17 construct: Bought soluble receptor; also called insulin-like growth factor-1 soluble receptor
The description is as above.

In experiment [18] the target is T18, rHuman Erythropoietin R/Fc Chimera, CF (R&D Systems Cat#963-ER) (human, UniProt P19235 25-250).
T18 construct: Bought reagent; also called EPO R/Fc; EPO R; Fc part of the bought chimera not given
T18 sequence (looked up): T7 sequence (looked up)
The experiment is described as above.

Residue numbers refer to the chain shown, from its start.

B1: Fab VH1-46_IGHD3-10*01_IGHJ4*01 & B3_IGKJ1*01 (Fab, V domains shown)
VH: QVQLVQSGAEVKKPGASVKVSCKASGYTFTSYYMHWVRQAPGQGLEWMGIINPSGGSTSYAQKFQGRVTMTRDTSTSTVYMELSSLRSEDTAVYYCAREYYYGSGSYYNDYFDYWGQGTLVTVSS
VL: not shown
notes: Tested as a Fab made in E. coli; VH was cloned into Plasmid A (CH1 constant region, His6 and Flag tags); The kappa VL was cloned into Plasmid C (kappa CL)
Turning to B1, the ECL signal in experiment [1] was found to be 309; in experiment [2], 302; in [3], 347; in [4], 428; in experiment [5], 331; in experiment [6], 388. Besides, the ECL signal was 2390 in experiment [7], 343 in experiment [8] and 336 in experiment [9].

B2: Fab VH1-46_IGHD6-6*01_IGHJ1*01 & L6_IGKJ1*01 (Fab, V domains shown)
VH: QVQLVQSGAEVKKPGASVKVSCKASGYTFTSYYMHWVRQAPGQGLEWMGIINPSGGSTSYAQKFQGRVTMTRDTSTSTVYMELSSLRSEDTAVYYCAREEYSSSSAEYFQHWGQGTLVTVSS
VL: not shown
notes: Only variable domains are tied to the molecule; Tested as a Fab made in E. coli: heavy chain from Plasmid A (CH1 constant region, His6 and Flag tags), kappa light chain from Plasmid C (kappa CL); also called parent Hit Fab against DLL4; VH1-46_IGHD6-6*01_IGHJ1*01 & L6_IGKJ1*01 (parental)
With B2, the ECL signal was found to be 373 ECL signal in experiment [10] and 286 ECL signal in experiment [11].

B3: Fab VH1-46_IGHD6-13*01_IGHJ4*01 & B3_IGKJ1*01 (Fab, V domains shown)
VH: B2 VH with E100G, S105W, A106Y, E107D, Q110D, H111Y
VL: not shown
notes: Germline Fab made in E. coli; VH was cloned into Plasmid A (CH1, His6 and Flag tags) and the kappa VL into Plasmid C (kappa CL)
Regarding B3, the ECL signal worked out at 491 in experiment [12], 536 in experiment [13], 7750 in experiment [14] and 715 in [15].

B4: Fab VH1-8_IGHD2-2*01_IGHJ6*01 & L12_IGKJ1*01 (Fab, V domains shown)
VH: QVQLVQSGAEVKKPGASVKVSCKASGYTFTSYDINWVRQATGQGLEWMGWMNPNSGNTGYAQKFQGRVTMTRNTSISTAYMELSSLRSEDTAVYYCARGGYCSSTSCYADYYYYYGMDVWGQGTTVTVSS
VL: not shown
With B4, the values for the ECL signal in [16], in experiment [17] and in experiment [18] were 573, 561 and 673, respectively.

(Values after patent US20120316071A1 (published 2012).)
